Data from publication PMC10786891, “Massively parallel profiling of RNA-targeting CRISPR-Cas13d”.

T1: EsCas13d, nuclease-dead (Eubacterium siraeum, UniProt B0MS50, R295A;H300A;R849A;H854A)
T1 sequence: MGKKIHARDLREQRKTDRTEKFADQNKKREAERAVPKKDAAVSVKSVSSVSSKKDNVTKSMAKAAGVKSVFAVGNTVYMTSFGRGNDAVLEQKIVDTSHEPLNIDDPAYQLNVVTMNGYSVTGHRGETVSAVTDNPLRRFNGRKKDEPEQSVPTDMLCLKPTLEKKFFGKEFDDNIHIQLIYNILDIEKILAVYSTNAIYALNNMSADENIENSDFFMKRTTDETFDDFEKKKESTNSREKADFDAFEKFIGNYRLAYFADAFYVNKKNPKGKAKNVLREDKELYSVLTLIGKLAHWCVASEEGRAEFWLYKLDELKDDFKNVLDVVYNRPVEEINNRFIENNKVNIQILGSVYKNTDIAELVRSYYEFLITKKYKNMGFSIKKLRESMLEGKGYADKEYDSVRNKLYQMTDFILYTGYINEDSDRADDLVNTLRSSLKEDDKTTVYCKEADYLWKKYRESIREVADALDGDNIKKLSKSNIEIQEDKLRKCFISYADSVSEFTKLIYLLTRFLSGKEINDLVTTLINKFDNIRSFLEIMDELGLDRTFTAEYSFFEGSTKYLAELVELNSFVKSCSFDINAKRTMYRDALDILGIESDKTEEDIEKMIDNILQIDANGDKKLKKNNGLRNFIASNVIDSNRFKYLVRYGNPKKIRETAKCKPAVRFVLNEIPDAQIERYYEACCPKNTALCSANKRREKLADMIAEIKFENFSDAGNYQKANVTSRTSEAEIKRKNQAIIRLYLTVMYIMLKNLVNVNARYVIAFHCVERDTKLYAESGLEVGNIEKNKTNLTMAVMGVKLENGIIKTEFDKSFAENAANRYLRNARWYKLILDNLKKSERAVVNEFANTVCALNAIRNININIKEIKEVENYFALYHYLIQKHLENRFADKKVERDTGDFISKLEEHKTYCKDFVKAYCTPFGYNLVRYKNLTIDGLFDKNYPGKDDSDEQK


target: T1, EsCas13d, nuclease-dead; assay: crRNA (strand 1, pre-loaded); Mg2+; 40 mM Tris-HCl pH 7.5, 150 mM NaCl, 6 mM MgCl2, 1 mM DTT, 0.1% Tween-20, 0.2 mg/ml BSA; 25 C; 10 min per concentration, then washed; conditions: tags: His6-TwinStrep-SUMO cleaved; N-terminal SNAP kept (SNAP-Surface 488); label: 3' end held by stalled T7 RNA polymerase

Row | Binder | Kd [nM]
1 | target 2 MT 5'PFS GAC 3'PFS CUU (mixed) RNA 1: CACCCGUGCAAAAUUGCAGGGGUCUAAAACCUUCUCCAAAUUGUUUCAUCCU RNA 2: GGGAAUGGAUCCACAUCUACGAAUUCGACAGGAUGAAACAAUUUGGAGAAGCUUAGAUCGGAAGAGCACACGU | 12.5 ± 1.3
2 | target 2 MT 5'PFS GCA 3'PFS CAA (mixed) RNA 1: CACCCGUGCAAAAUUGCAGGGGUCUAAAACCUUCUCCAAAUUGUUUCAUCCU RNA 2: GGGAAUGGAUCCACAUCUACGAAUUCGCAAGGAUGAAACAAUUUGGAGAAGCAAAGAUCGGAAGAGCACACGU | 7.7 ± 1.1
3 | target 2 MT 5'PFS GUC 3'PFS CCG (mixed) RNA 1: CACCCGUGCAAAAUUGCAGGGGUCUAAAACCUUCUCCAAAUUGUUUCAUCCU RNA 2: GGGAAUGGAUCCACAUCUACGAAUUCGUCAGGAUGAAACAAUUUGGAGAAGCCGAGAUCGGAAGAGCACACGU | 14.9 ± 1
4 | target 2 MT 5'PFS GCA 3'PFS CAC (mixed) RNA 1: CACCCGUGCAAAAUUGCAGGGGUCUAAAACCUUCUCCAAAUUGUUUCAUCCU RNA 2: GGGAAUGGAUCCACAUCUACGAAUUCGCAAGGAUGAAACAAUUUGGAGAAGCACAGAUCGGAAGAGCACACGU | 7.5 ± 1
5 | target 2 MT 5'PFS GAG 3'PFS AUU (mixed) RNA 1: CACCCGUGCAAAAUUGCAGGGGUCUAAAACCUUCUCCAAAUUGUUUCAUCCU RNA 2: GGGAAUGGAUCCACAUCUACGAAUUCGAGAGGAUGAAACAAUUUGGAGAAGAUUAGAUCGGAAGAGCACACGU | 5.6 ± 0.4
6 | target 1 C6G,A14U (mixed) RNA 1: CACCCGUGCAAAAAUGCAGGGGUCUAAAACUGAGCGGAUAACCUCUCUAUGG RNA 2: GGGAAUGGAUCCACAUCUACGAAUUCGUACCAUAGAGUGGUUAUCGGCUCACCGAGAUCGGAAGAGCACACGU | 41 ± 14
7 | target 2 MT 5'PFS GCA 3'PFS CAG (mixed) RNA 1: CACCCGUGCAAAAUUGCAGGGGUCUAAAACCUUCUCCAAAUUGUUUCAUCCU RNA 2: GGGAAUGGAUCCACAUCUACGAAUUCGCAAGGAUGAAACAAUUUGGAGAAGCAGAGAUCGGAAGAGCACACGU | 7.9 ± 1.5
8 | target 2 MT 5'PFS GAC 3'PFS CUC (mixed) RNA 1: CACCCGUGCAAAAUUGCAGGGGUCUAAAACCUUCUCCAAAUUGUUUCAUCCU RNA 2: GGGAAUGGAUCCACAUCUACGAAUUCGACAGGAUGAAACAAUUUGGAGAAGCUCAGAUCGGAAGAGCACACGU | 12.1 ± 1.3
9 | target 2 MT 5'PFS GAG 3'PFS AUA (mixed) RNA 1: CACCCGUGCAAAAUUGCAGGGGUCUAAAACCUUCUCCAAAUUGUUUCAUCCU RNA 2: GGGAAUGGAUCCACAUCUACGAAUUCGAGAGGAUGAAACAAUUUGGAGAAGAUAAGAUCGGAAGAGCACACGU | 4.8 ± 0.5
10 | target 2 MT 5'PFS GAG 3'PFS AUC (mixed) RNA 1: CACCCGUGCAAAAUUGCAGGGGUCUAAAACCUUCUCCAAAUUGUUUCAUCCU RNA 2: GGGAAUGGAUCCACAUCUACGAAUUCGAGAGGAUGAAACAAUUUGGAGAAGAUCAGAUCGGAAGAGCACACGU | 9.9 ± 1.4
11 | target 2 MT 5'PFS GCA 3'PFS CAU (mixed) RNA 1: CACCCGUGCAAAAUUGCAGGGGUCUAAAACCUUCUCCAAAUUGUUUCAUCCU RNA 2: GGGAAUGGAUCCACAUCUACGAAUUCGCAAGGAUGAAACAAUUUGGAGAAGCAUAGAUCGGAAGAGCACACGU | 8.8 ± 1.8
12 | target 2 MT 5'PFS CGA 3'PFS UGC (mixed) RNA 1: CACCCGUGCAAAAUUGCAGGGGUCUAAAACCUUCUCCAAAUUGUUUCAUCCU RNA 2: GGGAAUGGAUCCACAUCUACGAAUUCCGAAGGAUGAAACAAUUUGGAGAAGUGCAGAUCGGAAGAGCACACGU | 6.8 ± 1.5
13 | target 2 MT 5'PFS AGA 3'PFS CUU (mixed) RNA 1: CACCCGUGCAAAAUUGCAGGGGUCUAAAACCUUCUCCAAAUUGUUUCAUCCU RNA 2: GGGAAUGGAUCCACAUCUACGAAUUCAGAAGGAUGAAACAAUUUGGAGAAGCUUAGAUCGGAAGAGCACACGU | 8.4 ± 1.2
14 | target 2 MT 5'PFS AUA 3'PFS AGA (mixed) RNA 1: CACCCGUGCAAAAUUGCAGGGGUCUAAAACCUUCUCCAAAUUGUUUCAUCCU RNA 2: GGGAAUGGAUCCACAUCUACGAAUUCAUAAGGAUGAAACAAUUUGGAGAAGAGAAGAUCGGAAGAGCACACGU | 6.1 ± 1.1
15 | target 2 MT 5'PFS CUG 3'PFS CGA (mixed) RNA 1: CACCCGUGCAAAAUUGCAGGGGUCUAAAACCUUCUCCAAAUUGUUUCAUCCU RNA 2: GGGAAUGGAUCCACAUCUACGAAUUCCUGAGGAUGAAACAAUUUGGAGAAGCGAAGAUCGGAAGAGCACACGU | 3.4 ± 0.6
16 | target 2 MT 5'PFS CUG 3'PFS CGG (mixed) RNA 1: CACCCGUGCAAAAUUGCAGGGGUCUAAAACCUUCUCCAAAUUGUUUCAUCCU RNA 2: GGGAAUGGAUCCACAUCUACGAAUUCCUGAGGAUGAAACAAUUUGGAGAAGCGGAGAUCGGAAGAGCACACGU | 2.31 ± 0.31
17 | target 1 insC 3' of 22,insU 3' of 4 (mixed) RNA 1: CACCCGUGCAAAAAUGCAGGGGUCUAAAACUGAGCGGAUAACCUCUCUAUGG RNA 2: GGGAAUGGAUCCACAUCUACGAAUUCGUACCCAUAGAGAGGUUAUCCGCUUCACCGAGAUCGGAAGAGCACACGU | 15.1 ± 1.6
18 | target 2 MT 5'PFS AUA 3'PFS AGG (mixed) RNA 1: CACCCGUGCAAAAUUGCAGGGGUCUAAAACCUUCUCCAAAUUGUUUCAUCCU RNA 2: GGGAAUGGAUCCACAUCUACGAAUUCAUAAGGAUGAAACAAUUUGGAGAAGAGGAGAUCGGAAGAGCACACGU | 7.6 ± 1.1
19 | target 2 MT 5'PFS AGA 3'PFS CUG (mixed) RNA 1: CACCCGUGCAAAAUUGCAGGGGUCUAAAACCUUCUCCAAAUUGUUUCAUCCU RNA 2: GGGAAUGGAUCCACAUCUACGAAUUCAGAAGGAUGAAACAAUUUGGAGAAGCUGAGAUCGGAAGAGCACACGU | 5.9 ± 1.1
20 | target 2 MT 5'PFS AUA 3'PFS AGU (mixed) RNA 1: CACCCGUGCAAAAUUGCAGGGGUCUAAAACCUUCUCCAAAUUGUUUCAUCCU RNA 2: GGGAAUGGAUCCACAUCUACGAAUUCAUAAGGAUGAAACAAUUUGGAGAAGAGUAGAUCGGAAGAGCACACGU | 26 ± 6
21 | target 2 MT 5'PFS AGA 3'PFS CUA (mixed) RNA 1: CACCCGUGCAAAAUUGCAGGGGUCUAAAACCUUCUCCAAAUUGUUUCAUCCU RNA 2: GGGAAUGGAUCCACAUCUACGAAUUCAGAAGGAUGAAACAAUUUGGAGAAGCUAAGAUCGGAAGAGCACACGU | 7.6 ± 1.4
22 | target 2 MT 5'PFS CUG 3'PFS CGU (mixed) RNA 1: CACCCGUGCAAAAUUGCAGGGGUCUAAAACCUUCUCCAAAUUGUUUCAUCCU RNA 2: GGGAAUGGAUCCACAUCUACGAAUUCCUGAGGAUGAAACAAUUUGGAGAAGCGUAGAUCGGAAGAGCACACGU | 3.9 ± 0.6
23 | target 2 MT 5'PFS AGA 3'PFS CUC (mixed) RNA 1: CACCCGUGCAAAAUUGCAGGGGUCUAAAACCUUCUCCAAAUUGUUUCAUCCU RNA 2: GGGAAUGGAUCCACAUCUACGAAUUCAGAAGGAUGAAACAAUUUGGAGAAGCUCAGAUCGGAAGAGCACACGU | 11.7 ± 1.9
24 | target 2 MT 5'PFS UGU 3'PFS AGC (mixed) RNA 1: CACCCGUGCAAAAUUGCAGGGGUCUAAAACCUUCUCCAAAUUGUUUCAUCCU RNA 2: GGGAAUGGAUCCACAUCUACGAAUUCUGUAGGAUGAAACAAUUUGGAGAAGAGCAGAUCGGAAGAGCACACGU | 12.5 ± 2.1
25 | target 2 MT 5'PFS GCC 3'PFS CAU (mixed) RNA 1: CACCCGUGCAAAAUUGCAGGGGUCUAAAACCUUCUCCAAAUUGUUUCAUCCU RNA 2: GGGAAUGGAUCCACAUCUACGAAUUCGCCAGGAUGAAACAAUUUGGAGAAGCAUAGAUCGGAAGAGCACACGU | 14 ± 4
26 | target 2 MT 5'PFS GUG 3'PFS CAA (mixed) RNA 1: CACCCGUGCAAAAUUGCAGGGGUCUAAAACCUUCUCCAAAUUGUUUCAUCCU RNA 2: GGGAAUGGAUCCACAUCUACGAAUUCGUGAGGAUGAAACAAUUUGGAGAAGCAAAGAUCGGAAGAGCACACGU | 6.8 ± 0.6
27 | target 2 MT 5'PFS UGU 3'PFS AGU (mixed) RNA 1: CACCCGUGCAAAAUUGCAGGGGUCUAAAACCUUCUCCAAAUUGUUUCAUCCU RNA 2: GGGAAUGGAUCCACAUCUACGAAUUCUGUAGGAUGAAACAAUUUGGAGAAGAGUAGAUCGGAAGAGCACACGU | 14.8 ± 2.4
28 | target 1 insU 3' of 20,insA 3' of 17 (mixed) RNA 1: CACCCGUGCAAAAAUGCAGGGGUCUAAAACUGAGCGGAUAACCUCUCUAUGG RNA 2: GGGAAUGGAUCCACAUCUACGAAUUCGUACCAUUAGAAGAGGUUAUCCGCUCACCGAGAUCGGAAGAGCACACGU | 27.3 ± 2.4
